Results reported in article PMC4029776, “Transiently Produced Hypochlorite Is Responsible for the Irreversible Inhibition of Chlorite Dismutase” (Biochemistry, 2014).

How the values were obtained:
Arg183 = assay: kinetics; details: ferric heme enzyme, chlorite turnover (inferred from context); cited from earlier work
[1] = substrate: [O-][Cl+]O; assay: Clark-type O2 electrode, initial rates, Michaelis-Menten; type: biochemical, Nitrospira defluvii; details: pH 7.0, 50 mM phosphate, 30 °C, 50 nM enzyme, NaClO2 10-1000 μM

| Molecule | pKa (Arg183) | Km [1] | kcat [1] |
| --- | --- | --- | --- |
| Chlorite dismutase (DaCld) (Dechloromonas aromatica) | ∼pH 6.5 | – | – |
| NdCld (chlorite dismutase from "Candidatus Nitrospira defluvii") (Nitrospira defluvii) (protein) ADREKLLTESGVYGTFATFQMDHDWWDLPGESRVISVAEVKGLVEQWSGKILVESYLLRGLSDHADLMFRVHARTLSDTQQFLSAFMGTRLGRHLTSGGLLHGVSKKPTYVAGFPESMKTELQVNGESGSRPYAIVIPIKKDAEWWALDQEARTALMQEHTQAALPYLKTVKRKLYHSTGLDDVDFITYFETERLEDFHNLVRALQQVKEFRHNRRFGHPTLLGTMSPLDEILEKFAQ | – | 138 ± 20 µM | 83 ± 4 s^–1 |
